The target in test [1] is T1, EphA10 antigen (R&D systems) (Homo sapiens (Human), UniProt Q5JZY3 34-565).
T1 construct: Coated antigen in the indirect ELISA; The Biacore assay says only 'EphA 10' without source or form; also called ephrin type-A receptor 10
T1 sequence: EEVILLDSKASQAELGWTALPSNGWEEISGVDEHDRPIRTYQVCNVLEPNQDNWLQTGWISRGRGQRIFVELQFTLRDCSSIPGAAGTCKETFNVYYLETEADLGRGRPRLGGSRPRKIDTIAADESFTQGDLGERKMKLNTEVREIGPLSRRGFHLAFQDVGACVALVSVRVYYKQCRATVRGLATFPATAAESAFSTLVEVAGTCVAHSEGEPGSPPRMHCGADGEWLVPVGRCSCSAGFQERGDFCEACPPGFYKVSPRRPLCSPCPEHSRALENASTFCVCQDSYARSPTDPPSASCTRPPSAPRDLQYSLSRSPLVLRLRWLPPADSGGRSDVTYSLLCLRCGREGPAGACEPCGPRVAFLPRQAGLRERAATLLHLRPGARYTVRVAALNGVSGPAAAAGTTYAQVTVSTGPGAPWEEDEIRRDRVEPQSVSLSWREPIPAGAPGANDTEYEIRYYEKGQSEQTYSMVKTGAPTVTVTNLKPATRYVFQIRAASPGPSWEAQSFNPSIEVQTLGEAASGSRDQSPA
The test is described as follows: indirect ELISA on coated EphA antigen, ScFv-mouse IgG2a antibody titrated. As to the method: ScFv sequences were fused with mouse IgG2a sequence and sub-cloned into pcDNA3.1 plasmid. Three ScFv-mouse IgG2a plasmids were transfected into HEK293 cells. Three ScFv-mouse IgG2a antibodies were purified by protein A resin. Three antibodies were tested for indirect ELISA against coated 9 EPHA antigens (EphA1-8 and 10, R&D systems).
A general note: In an ELISA, binding on a coated surface is turned into a signal by an enzyme label.

Test [2] deals with T1, EphA10 antigen (R&D systems). The test is described as follows: Biacore 8K SPR, global fit to 1:1 binding model, triplicates. An excerpt: CMU #13 was also subjected to a Biacore assay.
(In SPR one partner is held on a chip, and binding of the other changes the refractive index at the surface.)

The target of test [3] is T2, full-length human EphA10 expressed on NIH 3T3 cells (human, UniProt Q5JZY3 34-1008).
T2 construct: whole, on cells
T2 sequence (looked up): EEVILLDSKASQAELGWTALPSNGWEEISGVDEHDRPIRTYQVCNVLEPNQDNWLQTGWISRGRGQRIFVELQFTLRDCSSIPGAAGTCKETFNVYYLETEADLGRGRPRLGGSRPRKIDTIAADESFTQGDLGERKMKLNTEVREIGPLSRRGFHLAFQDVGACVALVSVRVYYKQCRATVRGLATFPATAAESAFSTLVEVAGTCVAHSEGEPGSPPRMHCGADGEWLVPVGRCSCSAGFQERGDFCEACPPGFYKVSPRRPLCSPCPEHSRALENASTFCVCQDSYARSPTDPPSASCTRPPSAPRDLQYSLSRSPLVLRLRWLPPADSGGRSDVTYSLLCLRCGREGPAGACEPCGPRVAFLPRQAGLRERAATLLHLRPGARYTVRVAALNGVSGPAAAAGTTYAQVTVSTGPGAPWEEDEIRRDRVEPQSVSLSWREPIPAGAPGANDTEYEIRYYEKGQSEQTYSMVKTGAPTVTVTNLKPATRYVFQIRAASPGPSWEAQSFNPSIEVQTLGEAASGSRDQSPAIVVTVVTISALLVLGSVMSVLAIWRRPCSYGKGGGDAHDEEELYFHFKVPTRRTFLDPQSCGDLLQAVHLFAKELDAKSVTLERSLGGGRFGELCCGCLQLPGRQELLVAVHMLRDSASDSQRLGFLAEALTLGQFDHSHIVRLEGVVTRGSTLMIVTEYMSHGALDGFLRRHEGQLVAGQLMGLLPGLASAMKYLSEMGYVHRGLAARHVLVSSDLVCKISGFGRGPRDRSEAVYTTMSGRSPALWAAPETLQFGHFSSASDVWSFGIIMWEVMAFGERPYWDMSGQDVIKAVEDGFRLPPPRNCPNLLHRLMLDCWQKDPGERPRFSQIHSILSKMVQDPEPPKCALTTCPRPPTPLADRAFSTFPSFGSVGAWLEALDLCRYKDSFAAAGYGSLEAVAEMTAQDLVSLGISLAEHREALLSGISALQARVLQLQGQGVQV
The test is described as follows: FACS on NIH 3T3 cells expressing full-length human EphA10.

The record followed here is patent US20250017968A1 (CHINA MEDICAL UNIVERSITY, published 2025).

B1: CMU #13 ScFv-mouse IgG2a antibody (Fc fusion)
chain: QVQLVQSGAEVKKPGSSVKVSCKASGGTFSSYAISWVRQAPGQGLEWMGGIIPIFGTANYAQKFQGRVTITADESTSTAYMELSSLRSEDTAVYYCAREGDSYGYYYGMDVWGQGTTVTVSSGGGGSGGGGSGGGGSQPVLTQPPSASGTPGQRVTISCSGSSSNIGSNYVYWYQQLPGTAPKLLIYENYLRPSGVPDRFSGSKTGTSASLAISGLQSEDEADYYCAAWDDSLNGYVFGTGTQLTVLSEPRGPTIKPCPPCKCPAPNLLGGPSVFIFPPKIKDVLMISLSPIVTCVVVDVSEDDPDVQISWFVNNVEVHTAQTQTHREDYNSTLRVVSALPIQHQDWMSGKEFKCKVNNKDLPAPIERTISKPKGSVRAPQVYVLPPPEEEMTKKQVTLTCMVTDFMPEDIYVEWTNNGKTELNYKNTEPVLDSDGSYFMYSKLRVEKKNWVERNSYSCSVVHEGLHNHHTTKSFSRTPGK
notes: The Biacore assay names only 'CMU #13'; also called anti-EphA10 antibody CMU #13
One may read the EC50 (read off the curve) as the concentration at which the effect is half-maximal. A low value points to higher potency in that assay. What is called Kd is a measure of binding affinity in units of concentration. For orientation: koff means the first-order rate constant of dissociation. By kon is commonly meant the second-order rate constant of association. A low value points to slow association. Consider B1, for which the “EC50 (read off the curve)” value in test [1] was ~0.4 nM. In test [2], this molecule registered a dissociation constant Kd of 1.79 nM, a dissociation rate constant (koff) of 0.00288 s⁻¹ and an on-rate constant (kon) of 1.61e+06 M⁻¹ s⁻¹.

B2: CMU #13 scFv (clone from human B cell-derived scFv phage display library) (scFv)
scFv: QVQLVQSGAEVKKPGSSVKVSCKASGGTFSSYAISWVRQAPGQGLEWMGGIIPIFGTANYAQKFQGRVTITADESTSTAYMELSSLRSEDTAVYYCAREGDSYGYYYGMDVWGQGTTVTVSSGGGGSGGGGSGGGGSQPVLTQPPSASGTPGQRVTISCSGSSSNIGSNYVYWYQQLPGTAPKLLIYENYLRPSGVPDRFSGSKTGTSASLAISGLQSEDEADYYCAAWDDSLNGYVFGTGTQLTVLS
For the molecule B2, the binding result in test [3] is on record as “binds”.
